Results reported in US20240026407A1, “MODIFICATION OF SAPONINS” (GLAXOSMITHKLINE BIOLOGICALS SA, priority 2020, published 2024).

Columns and labels:
Type in all cases: biochemical, Quillaja saponaria
[1] = Experiment 6-1: screening of rhamnosidases for derhamnosylation of saponins in treated bark extract (2%), QS-17 2296 to QS-18 2150 (PAR %); conditions: TBE 2%, pH 7.5, 30 degC, 18 h; TIC peak area ratio percent of rhamnosylated starting saponin to derhamnosylated product, LCMS/MS; negative controls 4.876, 5.225
[2] = Experiment 6-1: screening of rhamnosidases for derhamnosylation of saponins in treated bark extract (2%), desglucosyl-QS-17 2134 to QS-21 1988 (PAR %); conditions: TBE 2%, pH 7.5, 30 degC, 18 h; TIC peak area ratio percent, LCMS/MS; negative controls 2.719, 2.158
[3] = Experiment 6-1: screening of rhamnosidases for derhamnosylation of saponins in treated bark extract (2%), QS-17 2310 to QS-18 2164 (PAR %); conditions: TBE 2%, pH 7.5, 30 degC, 18 h; TIC peak area ratio percent, LCMS/MS; negative controls 3.061, 2.429
[4] = Experiment 6-1: specificity of rhamnosidases towards other rhamnose residues (C3 saccharide rhamnose, C28 saccharide rhamnose); conditions: TBE 2%, pH 7.5, 30 degC, 18 h; LCMS/MS; negative controls 0.18, 0.17

Row | Molecule | QS-17 (PAR %) [1] [%] | Peak75 (PAR %) [2] [%] | Peak57 (PAR %) [3] [%] | ratio PP/QS-21 [4]
1 | 1056 (protein, listed as Solitalea canadensis) MKPIITNLMLLLFAGAASAQSSKELYRSKEFSIYTDKVVQGKYIAKVLSPTEMTSDYQSPVNLYKSPKLTFKFSINGKDNEMISGQDHSINVMAKDGKFISPLITFGKHYVDKKNVPDNTYLEPNIDFTIRLDMRNVLNAFKTDGFYKGADGKKVYKEDFKGVYVAGSTLPLIWDFDNLVHHPDLQLKDDDGDGIYEVKVVLNEFKEQPSVSSNWKLKRNISAFPQYQASSPIENAMYNLSLDEMENAIEADSTLRTGKEWAGVWTRDVSYSIILSMAILQPKVAEYSLLRKVKNDRIIQDTGTGGAYPVSTDRMIWAVAAWEIYKTTGDKNWLSKAYSIIKNSIEDDWKNAYDPKTGLVKGESSFLDWREQEYPKWMQPADIYESECLGTNVVHFQANKVFAEMAILLGQKTVSDEHNAIAQTIKTGINNYLWIANKGYYGQYLYGRNYKILSPRSEALGEALAVIFGVADNERQKTIVRNTPVNSFGIPCFYPQLPNTPPYHNNAVWPFVQTYWALAAANAGNEQSVMESIAAIYRPAALFLTNKENFVADNGDFAGTQINSSNMLWSLSGNIALVYKVLFGMQFGADRLTFKPTVPQALAGTRMLTNFKYRNALLTISMQGFGTQIKSITMDGKPLVNAIVPASLTGKHTIKMVLTNMMESSSTTILPAYTSLTIPQVELKNDEIVWKKVPNAVSYVFIKNGDRIDNGIDTACIINNNSFAEYQVIAVDKNGVESFGSEPLQIIPEQTVKTIEIENLTSKADLPYKGYSGDGFVEISTQKNTILSFETTITEAGTYAINFKYANGNGPINTENKCAFRTLKLNNKQVGTVVLPQRGTNEWSEWGMSNSVIVELKAGTNKFDLTYETNNANMNGTVNQAMLDYVRIVKVE | 4.774 | 2.416 | 2.796 | 0.17
2 | 996 (protein, listed as Opitutus terrae) MHRRFLAAILLGAPALLESAAAAPETPAAPPPAAAQPLAWPEVHRETKPWSRWWWFGNIADEKSVTAQLEACAAAGLGGLEITPIYGVRGYEDRFVPFLSPRWMELLRHTLVESRRLGLGIDLATGTGWPFGGPWLQPEDVAHTLAHRVYEIKPGERLGEPVRLTATGLVRVAGPRPVKLEELREPITANANLQELALDQVRFPKPMRLVSLMAFPLALAGVAPTPLDLTSRVRADGSLDWTAPADAGTWTLYALFAGPHGKMVERAAPGGEGFALDHFSSTALRAYLARFDAAFAEGHLLSDLPSAAGADSAPRLRAFFNDSYEVDDADGEANWTPRFLEEFQKRRGYDLRAHLPELLATTENDFSARVRSDYRETISDLLLDEFTNPWREWAHQHGALIRNQAHNSPANILDLYAASDIPEQEGNGFLAMKLASSAAHVSGKPLASAETATWLNEHFLTTLAELKQNTDEFLLAGINHVCYHGTALSPLDAAWPGFNFYASVELNPLNPFWRDFTALNAYVARAQSFLQSGTPDEDVLLYYNIHDRWAERGNGRMPHFGHGGRDPSGSLAATAAALHEAGVGFDYVSDRQLQKITPDRAIVVPQTTFMPEATLARLVELAAQGATILFVDHLPRSAPGLAGLNASGRFEQLLQKIQTQLAPSDVLSAAKLDGGQFLLGPGIRELLDRCPGIARESLRPFGLEFVRRRTDAGALYFLVNRSNQPIDRWIPLQSPAAAAALFDPMTGNAGLAAIHSSGPTGSASIPPAHSDGARASRAPTEIYLQLAPGESCVVQLHATPVAGPAWHYWQRAGEPHLLTGDWSVTFTAGGPALPAAAQLHALTSWTDFAGEAGRAFSGTAVYTRRFARPSGDAPAWELDLGTVGDSARVTLNGRELGVLIQPPWRVVIPANEWRDENALEIDVTNLAANRIADLDRRGASWKIFYNANFPARFRENVGPDRQFTAARWLPRNSGLLGPVKLTPLQKSDPTL | 4.778 | 2.221 | 3.190 | 0.16
3 | 997 (protein, Lachnoclostridium phytofermentans) MKSFIKELIEQKEGNYILPFFWQHGESEGKLREYMEAIHSCGIRAVCVEARPHPDYLGPGWWHDLDIIIDEAKKRDMKLWILDDAHFPTGYAAGKIAESEDKYCKQYISRKFIDVSGPTPEVEVNLAAMMMPIMLPSGLNLEMFGMSSEKKRYFTDDRILSIRAYQMDKDSSLIGEGIDLTTNIVNGKLIWDVPKGTWRINVLFITRNGEGRCDYINMVDKDSCRIQIDAVYEPHYEHYKEEFGKTIAGFFSDEPCLGNSIGYNFDESIGKKKTPLPWSSQLEKMLEEKLGKEYLPYYPALWTDMADEKVNARVRYAYMDCVTRLVEENFSRQIGQWCEERGVEYIGHIVEDNNQHSRLGSSQGHFFRSMMGQHMSGIDNIGDQVLPGGENHKREALLGADKDGEFYHYELGKLGSSLAHIDPKKQGRAMCEIFGAYGWRLGIRTMKYLMDHFLVRGINVYVPHAFSPKDFPDSDCPPHFYAGGEDPQFNYFKKLMHYTNRMCHLLNGGTHIAPAAVLYHGEAEWTGGCMFNQKVARELLESQIDFDILPSDVFADMSAYNATFDGFLQVNGESYDCFIVPYAEFITKEVAVFAGTASKKGFPVFFVQGLPESICNIDKKEEEKLLLDGMSECIVVPLEALSKTLKDNKLFEISSDNQFDGLRYYHYRKEQTELYMFSNESIGKEYNGWITVKSKGEVSLYDAMDNRIIPAEYRNTEDGTSIHIRLTPYQSVVALFEDLKEVEDQGNFEAKPGYRLDAAWRISSAEVSKYPEFQPVEVTTELKSMGRVLPDFSGYLRYESEFVYDRMPTGRELLNITDVYEGAEVWLNGHCLGMKICPPYQFPLGEALRAGENHIRIEVATTLDRKVKSLPQDMRSLMFYSKITEPTGIVGSVEIWN | 4.754 | 2.115 | 2.906 | 0.17
4 | 1045 (protein, listed as Acidobacterium capsulatum) MLVGGLATAATAQTNLQQLEKTFQNPPDNAKPMLRWWWFGPSVTKPEILREMQQIKAGGFGGFVIHYVYPLALDDPQTGFRNLPFLSPAMLSDVSYANRQAHALGLRAGTALASGWPYGGPMTAVTEAAAKIVQKESTVAPGAHSVALPSIGNGQKLLAVFAQDGSAGSQQKMLPLPAPVTLRMAIPTGTHIVDWYLMSRTGQQVKRAAVDANGFVLDHFSHHAVADHLKNVGDKLVAAFGSEPPDSVFSDSLEVFGADWTPDFLEEFRKKNGYSLLPYLPDLFMKHPDAQALAVRHDWGVTLTALIDENYLTQVNAWARAHHTHLRAQVYGPPAVSLSSNNLVDLPEGEGPQWRQFAYTRWATSAGHLYGRPIISSETFTWLHSPAFRATPLDVKAEADRFFLQGVNQIYCHGWPYSPPSAGEPGWRFYAAAVFDAHNPWWIVMPEVTQYLQRVSWIMRQGAPANRVAIFLPEDDAWAAFTPGQVALTGLLPRWITPQLTQAIENSGYDFDYIDAAAIQARGIHYSLLILPNVDRISPAALTAIQQYEKSGGKVIALGRIPAHAPGFLHYEQISAEVNRESHAFFGHPGARVRVVQAVSGLGDALHQMLTPAMTLSAAKPAVGFVRRKLDDADIYFLANTSNVSIHTVAHLRSRYTSGTWLDPMSGKAYAAQSRNGGWPLHLAPYGSTILVLHAKNVRLPVAAGHDSFNPSSTKAIADLSSDWNVSFPALHLQEPMATLASWTKNEKTLYYSGVAVYRRTLEVAQNDLDHAPLLLSFGQGTPVSPSAFHRQMGTRAWLNPPVHVAAVVYVNGRLAGTVWHPPYVLAVGGLLKPGANQIEVRVANTAINEMAGKSLPDYRLLWARYGRRFEPQDMKHLQPLPSGLLGKVELLEGESR | 4.741 | 2.442 | 2.865 | 0.17
